# B1: anti-hTfR antibody No. 6 (antibody, V domains shown)
# VH: EVQLQESGPGLVAPSQSLSITCSVSGFSLSTYGVYWVRQPPGKGLEWLGIIWGDGSTNYHSALISRLTISKDNSKSQVFLKLNSLQTADTATYYCAKPDDVWGAGTTVTVSS
# VL: DIVLTQTPSSLSASLGERVSLTCRASQEISGYLSWLQQKPDGTIKRLIYAASTLDSGVPKRFSGSRSGSDYSLTISSLESEDFADYYCLQYSSYPRTFGGGTKLEIK
# notes: Mouse monoclonal antibody from a hybridoma, purified on Protein G; also called mouse anti-hTfR antibody No. 6; antibody of Clone 6 line
# B2: anti-hTfR antibody No. 2 (antibody, V domains shown)
# VH: EVQLQESGAELVRPGVSVKISCKGSGYTFTDYVMHWVRQSHAKSLEWIGVISTYYGHGSYNQRFKGKATMTVDKSSSTAYLELVRLTSEDSAIYYCVRGGYGSSSLAGNFDVWGAGTTVTVSS
# VL: DIVLTQSPATLSVTPGDSVSLSCRASQSISNNLQWYQQKSHESPRLLIKYASQSISGIPSRFSGSGSGTDFTLSINSVETEDFGMYFCQQSNSWPRTFGAGTKLELKR
# notes: Mouse monoclonal antibody from a hybridoma, purified on Protein G; also called mouse anti-hTfR antibody No. 2; antibody of Clone 2 line
# Target: T1, recombinant monkey TfR (r monkey TfR: Sino Biological Inc.), cynomolgus monkey TfR extracellular region with … (cynomolgus monkey (Macaca fascicularis), UniProt Q5RDH6 89-760 (Pongo abelii entry))
# T1 construct: Bought (Sino Biological); also called r monkey TfR-ECD (Histag); not shown: histidine tag attached to the N-terminus
# T1 chain: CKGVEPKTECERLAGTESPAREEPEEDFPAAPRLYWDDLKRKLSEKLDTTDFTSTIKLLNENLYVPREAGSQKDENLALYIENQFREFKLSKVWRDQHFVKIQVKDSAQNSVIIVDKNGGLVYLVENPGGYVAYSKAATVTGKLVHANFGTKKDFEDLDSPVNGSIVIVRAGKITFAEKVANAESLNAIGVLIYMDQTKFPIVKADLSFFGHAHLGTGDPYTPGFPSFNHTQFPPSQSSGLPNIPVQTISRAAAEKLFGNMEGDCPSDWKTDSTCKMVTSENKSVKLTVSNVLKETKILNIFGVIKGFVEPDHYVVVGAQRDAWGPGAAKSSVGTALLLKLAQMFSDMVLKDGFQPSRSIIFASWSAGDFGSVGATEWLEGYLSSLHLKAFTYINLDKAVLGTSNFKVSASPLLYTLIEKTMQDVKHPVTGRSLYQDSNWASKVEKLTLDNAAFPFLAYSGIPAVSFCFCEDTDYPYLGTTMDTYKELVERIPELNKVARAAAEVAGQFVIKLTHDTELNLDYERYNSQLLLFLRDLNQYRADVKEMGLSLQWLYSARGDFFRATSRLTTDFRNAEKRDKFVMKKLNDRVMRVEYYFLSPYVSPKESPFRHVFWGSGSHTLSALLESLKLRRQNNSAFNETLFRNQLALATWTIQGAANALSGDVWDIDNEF
# Test: BLI, Octet RED96, His-TfR ECD on Ni-NTA sensor
# Method: By measuring the variations of this shift between the interfering waves, determination of the number of the molecules bound to the layer of the biomolecules immobilized to the sensor tip surface and kinetic analysis of it can be performed in real time. The measurement was performed according generally to the operating manual attached to Octet RED96. As a human TfR, a recombinant human TfR (r human TfR: Sino Biological Inc.) was used, which had the amino acid sequence of the hTfR extracellular region, i.e., the cysteine residue at the position 89th from the N-terminal side to the phenylalanine at the C-terminus, of the amino acid sequence set forth as SEQ ID NO:1, with a histidine tag attached to the N-terminus. As a monkey TfR, a recombinant monkey TfR (r monkey TfR: Sino Biological Inc.) was used, which had the amino acid sequence of the cynomolgus monkey TfR extracellular region, i.e., the cysteine residue at the position 89th from the N-terminal side to the phenylalanine at the C-terminus, of the amino acid sequence set forth as SEQ ID NO:2, with a histidine tag attached to the N-terminus. […]
Binder,Kd,koff
B1,477 pM,
B2,,1.75e-05 s⁻¹

# — patent US20210309754A1 (JCR PHARMACEUTICALS, published 2021)
